# According to US20200079833A1 (AstraZeneca / MedImmune, published 2020):
# Starred links: 1 amine or outer side, 2 acyl side, 3 side chain; linkers in the order of their positions; H or OH if unused. Non-standard residues stand in square brackets, D forms with d. Groups on a side chain read outwards from the residue. Primed or numbered codes have the meaning given here. No end group written: not given here. *: point of attachment. γGlu = O=C(O)[C@H](CCC(=O)[*:2])N[*:1]; Palmitoyl = CCCCCCCCCCCCCCCC(=O)*; αMeF = C[C@](N)(Cc1ccccc1)C(=O)O; αMeK = C[C@](N)(CCCCN)C(=O)O; Lauroyl = CCCCCCCCCCCC(=O)*; αMeS = C[C@](N)(CO)C(=O)O; PEG2′ = not defined here; Aib = CC(C)(N)C(=O)O
# T1: GLP-1R in the INS1e assay (UniProt P32301 22-463, limits assumed)
# T1 sequence (looked up): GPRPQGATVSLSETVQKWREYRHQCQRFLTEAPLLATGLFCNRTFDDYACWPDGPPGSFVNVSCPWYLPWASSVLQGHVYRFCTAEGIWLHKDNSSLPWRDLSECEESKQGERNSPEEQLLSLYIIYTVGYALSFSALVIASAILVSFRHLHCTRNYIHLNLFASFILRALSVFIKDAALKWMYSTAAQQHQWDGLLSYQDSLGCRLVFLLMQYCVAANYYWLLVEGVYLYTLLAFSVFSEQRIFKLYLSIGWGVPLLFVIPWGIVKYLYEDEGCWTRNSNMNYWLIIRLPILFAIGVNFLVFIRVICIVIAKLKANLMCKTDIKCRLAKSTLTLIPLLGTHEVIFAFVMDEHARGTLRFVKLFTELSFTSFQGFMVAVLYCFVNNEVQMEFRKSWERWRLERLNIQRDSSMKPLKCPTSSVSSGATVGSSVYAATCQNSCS
# T2: glucose-dependent insulinotropic peptide (gastric inhibitory polypeptide) receptor (GIPR), primary cAMP assay (human, UniProt P48546 22-466)
# T2 sequence (looked up): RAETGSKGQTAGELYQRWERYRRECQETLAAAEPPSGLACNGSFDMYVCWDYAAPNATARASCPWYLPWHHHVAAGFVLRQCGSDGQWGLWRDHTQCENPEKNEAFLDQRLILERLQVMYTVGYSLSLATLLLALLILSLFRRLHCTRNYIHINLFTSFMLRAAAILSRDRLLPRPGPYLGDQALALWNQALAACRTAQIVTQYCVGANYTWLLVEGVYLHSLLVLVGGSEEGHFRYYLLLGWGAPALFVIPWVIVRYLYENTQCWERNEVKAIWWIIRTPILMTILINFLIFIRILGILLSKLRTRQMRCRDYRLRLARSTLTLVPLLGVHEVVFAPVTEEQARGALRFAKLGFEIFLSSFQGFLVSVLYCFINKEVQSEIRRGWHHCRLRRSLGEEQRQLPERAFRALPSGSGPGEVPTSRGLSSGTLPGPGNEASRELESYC
# B1: SEQ ID NO: 256 (peptide)
# peptide: H[Aib]EGS[αMeF]TSDK([PEG2′-PEG2′-γGlu-Lauroyl])SSYLEGEAA[αMeK]EFIK([PEG2′-PEG2′-γGlu-Lauroyl])WVVEGG-NH2
# B2: SEQ ID NO: 252 (peptide)
# peptide: H[Aib]EGS[αMeF]TSDVSK([PEG2′-PEG2′-γGlu-Lauroyl])YLEGEAA[αMeK]EFIAK([PEG2′-PEG2′-γGlu-Lauroyl])VVEGG-NH2
# B3: SEQ ID NO: 249 (peptide)
# peptide: H[Aib]EGS[αMeF]TSDVSK([PEG2′-PEG2′-γGlu-Lauroyl])YLEGEAA[αMeK]EFIK([PEG2′-PEG2′-γGlu-Lauroyl])WVVEGG-NH2
# B4: SEQ ID NO: 262 (peptide)
# peptide: H[Aib]EGS[αMeF]TSDV[αMeS]SK([PEG2′-PEG2′-γGlu-Lauroyl])LEGEAA[αMeK]EFIK([PEG2′-PEG2′-γGlu-Lauroyl])WVVEGG-NH2
# B5: SEQ ID NO: 250 (peptide)
# peptide: H[Aib]EGS[αMeF]TSDVSK([PEG2′-PEG2′-γGlu-Palmitoyl])FLEGEAA[αMeK]EFIK([PEG2′-PEG2′-γGlu-Palmitoyl])FVVEGG-NH2
# B6: SEQ ID NO: 251 (peptide)
# peptide: H[Aib]EGS[αMeF]TSDVSK([PEG2′-PEG2′-γGlu-Palmitoyl])YLEGEAA[αMeK]EFIK([PEG2′-PEG2′-γGlu-Palmitoyl])WVVEGG-NH2
# B7: SEQ ID NO: 257 (peptide)
# peptide: H[Aib]EGS[αMeF]TSDK([PEG2′-PEG2′-γGlu-Lauroyl])SSYLEGEAA[αMeK]EFIAK([PEG2′-PEG2′-γGlu-Lauroyl])VVEGG-NH2
# B8: SEQ ID NO: 253 (peptide)
# peptide: H[Aib]EGS[αMeF]TSDVSK([PEG2′-PEG2′-γGlu-Lauroyl])YLEGEAA[αMeK]EFIAWK([PEG2′-PEG2′-γGlu-Lauroyl])VEGG-NH2
# B9: SEQ ID NO: 264 (peptide)
# peptide: H[Aib]EGS[αMeF]TSDV[αMeS]SK([PEG2′-PEG2′-γGlu-Lauroyl])LEGEAA[αMeK]EFIAWK([PEG2′-PEG2′-γGlu-Lauroyl])VEGG-NH2
# B10: SEQ ID NO: 263 (peptide)
# peptide: H[Aib]EGS[αMeF]TSDV[αMeS]SK([PEG2′-PEG2′-γGlu-Lauroyl])LEGEAA[αMeK]EFIAK([PEG2′-PEG2′-γGlu-Lauroyl])VVEGG-NH2
# B11: SEQ ID NO: 265 (peptide)
# peptide: H[Aib]EGS[αMeF]TSDV[αMeS]SK([PEG2′-PEG2′-γGlu-Palmitoyl])LEGEAA[αMeK]EFIK([PEG2′-PEG2′-γGlu-Palmitoyl])WVVEGG-NH2
# Target: T1, GLP-1R in the INS1e assay
# Assay: cell-based or functional assay
Binder,INS1e assay EC50 (cAMP) Mean [pM],INS1e assay EC50 (cAMP) n1 [pM],INS1e assay EC50 (cAMP) n2 [nM]
B1,1300,1250,1.34
B2,175,184,0.166
B3,566,721,0.41
B4,552,700,0.403
B5,38000,36700,39.4
B6,7160,6470,7.85
B7,577,812,0.342
B8,2110,2080,2.14
B9,1030,963,1.1
B10,132,120,0.144
B11,8770,12200,5.34

# Target: T2, glucose-dependent insulinotropic …
# Assay: cell-based or functional assay
Binder,"Primary assay EC50 (cAMP), n1 [nM]","Primary assay EC50 (cAMP), n2 [nM]"
B1,22.2,22.2
B2,22.7,22.7
B3,22.1,22.1
B4,22.5,22.5
B5,21.6,21.6
B6,21.3,21.3
B7,22.8,22.8
B8,22.3,22.3
B9,22.6,22.6
B10,21.5,21.5
B11,21.6,21.6

# Target: glucagon receptor (GCGR), primary cAMP assay (human, UniProt P47871 26-477)
# Assay: cell-based or functional assay
# Sequence of glucagon receptor (GCGR), primary cAMP assay (P47871 26-477): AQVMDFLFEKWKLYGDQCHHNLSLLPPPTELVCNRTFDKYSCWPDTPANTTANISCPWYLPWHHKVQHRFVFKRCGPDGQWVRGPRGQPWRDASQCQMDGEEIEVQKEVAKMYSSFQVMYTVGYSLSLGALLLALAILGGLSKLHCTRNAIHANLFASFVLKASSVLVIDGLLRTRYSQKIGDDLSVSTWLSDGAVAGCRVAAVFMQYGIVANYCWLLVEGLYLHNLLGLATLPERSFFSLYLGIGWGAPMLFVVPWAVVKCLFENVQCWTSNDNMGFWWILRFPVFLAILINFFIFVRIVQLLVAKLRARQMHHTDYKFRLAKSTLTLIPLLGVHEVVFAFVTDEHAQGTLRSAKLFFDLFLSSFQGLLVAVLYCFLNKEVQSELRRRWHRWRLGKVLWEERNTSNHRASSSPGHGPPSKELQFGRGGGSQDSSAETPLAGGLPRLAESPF
Binder,"Primary assay EC50 (cAMP), n1 [nM]","Primary assay EC50 (cAMP), n2 [nM]"
B1,22.2,22.2
B2,22.7,22.7
B3,22.1,22.1
B4,22.5,22.5
B5,21.6,21.6
B6,21.3,21.3
B7,22.8,22.8
B8,22.3,22.3
B9,22.6,22.6
B10,21.5,21.5
B11,21.6,21.6

# Target: GLP-1 receptor (GLP-1R), primary cAMP assay (human, UniProt P43220 24-463)
# Assay: cell-based or functional assay
Binder,Primary assay EC50 (cAMP) Mean [pM],"Primary assay EC50 (cAMP), n1 [pM]","Primary assay EC50 (cAMP), n2 [pM]"
B1,7.5,9.46,5.57
B2,2.5,2.88,2.17
B3,5.5,4.47,6.49
B4,5.4,6.73,4.14
B5,45.1,29.2,61
B6,31.1,16,46.2
B7,8.4,4.36,12.4
B8,20.6,23.4,17.7
B9,12.8,18.2,7.37
B10,1.2,0.998,1.45
B11,33.6,39.1,28
